Test [1] concerns the target T1, human amylin receptor (calcitonin receptor co-expressed with receptor activity modifying protein, RAMP3) (human, UniProt P30988 25-474; O60896 24-148).
T1 sequence (looked up) 1: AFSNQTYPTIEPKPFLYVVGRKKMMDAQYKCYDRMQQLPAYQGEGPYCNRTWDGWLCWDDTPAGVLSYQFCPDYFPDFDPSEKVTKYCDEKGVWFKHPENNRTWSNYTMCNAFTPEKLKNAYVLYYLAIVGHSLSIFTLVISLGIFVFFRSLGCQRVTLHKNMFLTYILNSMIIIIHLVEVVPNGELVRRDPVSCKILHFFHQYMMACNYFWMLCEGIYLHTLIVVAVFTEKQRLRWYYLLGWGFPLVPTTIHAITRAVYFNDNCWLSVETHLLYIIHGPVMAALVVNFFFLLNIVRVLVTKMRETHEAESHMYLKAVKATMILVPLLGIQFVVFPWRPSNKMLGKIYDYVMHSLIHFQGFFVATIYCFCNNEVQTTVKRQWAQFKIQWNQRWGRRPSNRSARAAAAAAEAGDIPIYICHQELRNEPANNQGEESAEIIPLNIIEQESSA
T1 sequence (looked up) 2: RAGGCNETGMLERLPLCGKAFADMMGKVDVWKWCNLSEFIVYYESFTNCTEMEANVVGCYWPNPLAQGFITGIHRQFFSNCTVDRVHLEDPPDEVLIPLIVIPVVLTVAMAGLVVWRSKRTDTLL
As to the kind of experiment: cell-based or functional assay.

Test [2] concerns the target T2, human calcitonin receptor (human, UniProt P30988 25-474).
T2 sequence (looked up): T1 sequence (looked up) 1
Kind of test: cell-based or functional assay.

Numbered stars: 1 amine (or outer) side, 2 acyl side, 3 side chain; on linkers, the order of the positions; unused ones are H or OH. Bridge positions count the residues as written; N and C are the ends. Square brackets hold non-standard residues; d marks the D form. Side chains are listed from the residue outwards. Ends that are not written are not given here. * marks the point of attachment. C18 diacid = O=C(O)CCCCCCCCCCCCCCCCC(=O)*; γGlu = O=C(O)[C@H](CCC(=O)[*:2])N[*:1]; αMeF = C[C@](N)(Cc1ccccc1)C(=O)O; Aib = CC(C)(N)C(=O)O

These results are taken from patent publication US20220204580A1 (AstraZeneca / MedImmune, published 2022).

B1: Peptide 95 (SEQ ID NO: 95) (peptide)
peptide: K([γGlu-C18 diacid])KCNTATCATQRLANFL[Aib]HSSNNFGPI[Aib]PPTNVGSNTY-NH2
modifications: disulfide 3-8; N-terminus assumed
SMILES: CC[C@H](C)[C@H](NC(=O)[C@@H]1CCCN1C(=O)CNC(=O)[C@H](Cc1ccccc1)NC(=O)[C@H](CC(N)=O)NC(=O)[C@H](CC(N)=O)NC(=O)[C@H](CO)NC(=O)[C@H](CO)NC(=O)[C@H](Cc1c[nH]cn1)NC(=O)C(C)(C)NC(=O)[C@H](CC(C)C)NC(=O)[C@H](Cc1ccccc1)NC(=O)[C@H](CC(N)=O)NC(=O)[C@H](C)NC(=O)[C@H](CC(C)C)NC(=O)[C@H](CCCNC(=N)N)NC(=O)[C@H](CCC(N)=O)NC(=O)[C@@H](NC(=O)[C@H](C)NC(=O)[C@@H]1CSSC[C@H](NC(=O)[C@H](CCCCN)NC(=O)[C@@H](N)CCCCNC(=O)CC[C@H](NC(=O)CCCCCCCCCCCCCCCCC(=O)O)C(=O)O)C(=O)N[C@@H](CC(N)=O)C(=O)N[C@@H]([C@@H](C)O)C(=O)N[C@@H](C)C(=O)N[C@@H]([C@@H](C)O)C(=O)N1)[C@@H](C)O)C(=O)NC(C)(C)C(=O)N1CCC[C@H]1C(=O)N1CCC[C@H]1C(=O)N[C@H](C(=O)N[C@@H](CC(N)=O)C(=O)N[C@H](C(=O)NCC(=O)N[C@@H](CO)C(=O)N[C@@H](CC(N)=O)C(=O)N[C@H](C(=O)N[C@@H](Cc1ccc(O)cc1)C(N)=O)[C@@H](C)O)C(C)C)[C@@H](C)O
Regarding B1, in test [1], the “EC50 (cAMP production)” value was 0.691 nM and the “Ratio (EC50 hCTR / EC50 hAMYR3)” value came out at 2. In test [2], the “EC50 (cAMP production)” value stood at 1.17 nM.

B2: Peptide 99 (SEQ ID NO: 99) (peptide)
peptide: K([γGlu-C18 diacid])KCNTATCATQRLANFL[Aib]HSSNNFGPILPPTN[Aib]GSNTY-NH2
modifications: disulfide 3-8; N-terminus assumed
SMILES: CC[C@H](C)[C@H](NC(=O)[C@@H]1CCCN1C(=O)CNC(=O)[C@H](Cc1ccccc1)NC(=O)[C@H](CC(N)=O)NC(=O)[C@H](CC(N)=O)NC(=O)[C@H](CO)NC(=O)[C@H](CO)NC(=O)[C@H](Cc1c[nH]cn1)NC(=O)C(C)(C)NC(=O)[C@H](CC(C)C)NC(=O)[C@H](Cc1ccccc1)NC(=O)[C@H](CC(N)=O)NC(=O)[C@H](C)NC(=O)[C@H](CC(C)C)NC(=O)[C@H](CCCNC(=N)N)NC(=O)[C@H](CCC(N)=O)NC(=O)[C@@H](NC(=O)[C@H](C)NC(=O)[C@@H]1CSSC[C@H](NC(=O)[C@H](CCCCN)NC(=O)[C@@H](N)CCCCNC(=O)CC[C@H](NC(=O)CCCCCCCCCCCCCCCCC(=O)O)C(=O)O)C(=O)N[C@@H](CC(N)=O)C(=O)N[C@@H]([C@@H](C)O)C(=O)N[C@@H](C)C(=O)N[C@@H]([C@@H](C)O)C(=O)N1)[C@@H](C)O)C(=O)N[C@@H](CC(C)C)C(=O)N1CCC[C@H]1C(=O)N1CCC[C@H]1C(=O)N[C@H](C(=O)N[C@@H](CC(N)=O)C(=O)NC(C)(C)C(=O)NCC(=O)N[C@@H](CO)C(=O)N[C@@H](CC(N)=O)C(=O)N[C@H](C(=O)N[C@@H](Cc1ccc(O)cc1)C(N)=O)[C@@H](C)O)[C@@H](C)O
Turning to B2, in test [1], the “EC50 (cAMP production)” value came out at 3.8 nM and the “Ratio (EC50 hCTR / EC50 hAMYR3)” value amounted to 0.5. Further, the “EC50 (cAMP production)” value in test [2] amounted to 1.82 nM.

B3: Peptide 96 (SEQ ID NO: 96) (peptide)
peptide: K([γGlu-C18 diacid])KCNTATCATQRLANFL[Aib]HSSNNFGPIL[Aib]PTNVGSNTY-NH2
modifications: disulfide 3-8; N-terminus assumed
SMILES: CC[C@H](C)[C@H](NC(=O)[C@@H]1CCCN1C(=O)CNC(=O)[C@H](Cc1ccccc1)NC(=O)[C@H](CC(N)=O)NC(=O)[C@H](CC(N)=O)NC(=O)[C@H](CO)NC(=O)[C@H](CO)NC(=O)[C@H](Cc1c[nH]cn1)NC(=O)C(C)(C)NC(=O)[C@H](CC(C)C)NC(=O)[C@H](Cc1ccccc1)NC(=O)[C@H](CC(N)=O)NC(=O)[C@H](C)NC(=O)[C@H](CC(C)C)NC(=O)[C@H](CCCNC(=N)N)NC(=O)[C@H](CCC(N)=O)NC(=O)[C@@H](NC(=O)[C@H](C)NC(=O)[C@@H]1CSSC[C@H](NC(=O)[C@H](CCCCN)NC(=O)[C@@H](N)CCCCNC(=O)CC[C@H](NC(=O)CCCCCCCCCCCCCCCCC(=O)O)C(=O)O)C(=O)N[C@@H](CC(N)=O)C(=O)N[C@@H]([C@@H](C)O)C(=O)N[C@@H](C)C(=O)N[C@@H]([C@@H](C)O)C(=O)N1)[C@@H](C)O)C(=O)N[C@@H](CC(C)C)C(=O)NC(C)(C)C(=O)N1CCC[C@H]1C(=O)N[C@H](C(=O)N[C@@H](CC(N)=O)C(=O)N[C@H](C(=O)NCC(=O)N[C@@H](CO)C(=O)N[C@@H](CC(N)=O)C(=O)N[C@H](C(=O)N[C@@H](Cc1ccc(O)cc1)C(N)=O)[C@@H](C)O)C(C)C)[C@@H](C)O
As for B3, the “EC50 (cAMP production)” value in test [1] was 0.556 nM; in test [2], 0.859 nM. The “Ratio (EC50 hCTR / EC50 hAMYR3)” value in test [1] was found to be 2.

B4: Peptide 98 (SEQ ID NO: 98) (peptide)
peptide: K([γGlu-C18 diacid])KCNTATCATQRLANFL[Aib]HSSNNFGPILPPT[Aib]VGSNTY-NH2
modifications: disulfide 3-8; N-terminus assumed
SMILES: CC[C@H](C)[C@H](NC(=O)[C@@H]1CCCN1C(=O)CNC(=O)[C@H](Cc1ccccc1)NC(=O)[C@H](CC(N)=O)NC(=O)[C@H](CC(N)=O)NC(=O)[C@H](CO)NC(=O)[C@H](CO)NC(=O)[C@H](Cc1c[nH]cn1)NC(=O)C(C)(C)NC(=O)[C@H](CC(C)C)NC(=O)[C@H](Cc1ccccc1)NC(=O)[C@H](CC(N)=O)NC(=O)[C@H](C)NC(=O)[C@H](CC(C)C)NC(=O)[C@H](CCCNC(=N)N)NC(=O)[C@H](CCC(N)=O)NC(=O)[C@@H](NC(=O)[C@H](C)NC(=O)[C@@H]1CSSC[C@H](NC(=O)[C@H](CCCCN)NC(=O)[C@@H](N)CCCCNC(=O)CC[C@H](NC(=O)CCCCCCCCCCCCCCCCC(=O)O)C(=O)O)C(=O)N[C@@H](CC(N)=O)C(=O)N[C@@H]([C@@H](C)O)C(=O)N[C@@H](C)C(=O)N[C@@H]([C@@H](C)O)C(=O)N1)[C@@H](C)O)C(=O)N[C@@H](CC(C)C)C(=O)N1CCC[C@H]1C(=O)N1CCC[C@H]1C(=O)N[C@H](C(=O)NC(C)(C)C(=O)N[C@H](C(=O)NCC(=O)N[C@@H](CO)C(=O)N[C@@H](CC(N)=O)C(=O)N[C@H](C(=O)N[C@@H](Cc1ccc(O)cc1)C(N)=O)[C@@H](C)O)C(C)C)[C@@H](C)O
In the case of B4, the “EC50 (cAMP production)” value was 0.942 nM in test [1] and 0.972 nM in test [2]. The “Ratio (EC50 hCTR / EC50 hAMYR3)” value in test [1] was 1.

B5: Peptide 11 (SEQ ID NO: 11) (peptide)
peptide: K([γGlu-γGlu-C18 diacid])CNTATCATQRLAEFLRHSSNN[αMeF]GPILPPTNVGSNTY-NH2
modifications: disulfide 2-7; N-terminus assumed
SMILES: CC[C@H](C)[C@H](NC(=O)[C@@H]1CCCN1C(=O)CNC(=O)[C@](C)(Cc1ccccc1)NC(=O)[C@H](CC(N)=O)NC(=O)[C@H](CC(N)=O)NC(=O)[C@H](CO)NC(=O)[C@H](CO)NC(=O)[C@H](Cc1c[nH]cn1)NC(=O)[C@H](CCCNC(=N)N)NC(=O)[C@H](CC(C)C)NC(=O)[C@H](Cc1ccccc1)NC(=O)[C@H](CCC(=O)O)NC(=O)[C@H](C)NC(=O)[C@H](CC(C)C)NC(=O)[C@H](CCCNC(=N)N)NC(=O)[C@H](CCC(N)=O)NC(=O)[C@@H](NC(=O)[C@H](C)NC(=O)[C@@H]1CSSC[C@H](NC(=O)[C@@H](N)CCCCNC(=O)CC[C@H](NC(=O)CC[C@H](NC(=O)CCCCCCCCCCCCCCCCC(=O)O)C(=O)O)C(=O)O)C(=O)N[C@@H](CC(N)=O)C(=O)N[C@@H]([C@@H](C)O)C(=O)N[C@@H](C)C(=O)N[C@@H]([C@@H](C)O)C(=O)N1)[C@@H](C)O)C(=O)N[C@@H](CC(C)C)C(=O)N1CCC[C@H]1C(=O)N1CCC[C@H]1C(=O)N[C@H](C(=O)N[C@@H](CC(N)=O)C(=O)N[C@H](C(=O)NCC(=O)N[C@@H](CO)C(=O)N[C@@H](CC(N)=O)C(=O)N[C@H](C(=O)N[C@@H](Cc1ccc(O)cc1)C(N)=O)[C@@H](C)O)C(C)C)[C@@H](C)O
For B5, in test [1], the “EC50 (cAMP production)” value was found to be 0.177 nM and the “Ratio (EC50 hCTR / EC50 hAMYR3)” value worked out at 21. Further, the “EC50 (cAMP production)” value in test [2] was 3.64 nM.

B6: Peptide 97 (SEQ ID NO: 97) (peptide)
peptide: K([γGlu-C18 diacid])KCNTATCATQRLANFL[Aib]HSSNNFGPILP[Aib]TNVGSNTY-NH2
modifications: disulfide 3-8; N-terminus assumed
SMILES: CC[C@H](C)[C@H](NC(=O)[C@@H]1CCCN1C(=O)CNC(=O)[C@H](Cc1ccccc1)NC(=O)[C@H](CC(N)=O)NC(=O)[C@H](CC(N)=O)NC(=O)[C@H](CO)NC(=O)[C@H](CO)NC(=O)[C@H](Cc1c[nH]cn1)NC(=O)C(C)(C)NC(=O)[C@H](CC(C)C)NC(=O)[C@H](Cc1ccccc1)NC(=O)[C@H](CC(N)=O)NC(=O)[C@H](C)NC(=O)[C@H](CC(C)C)NC(=O)[C@H](CCCNC(=N)N)NC(=O)[C@H](CCC(N)=O)NC(=O)[C@@H](NC(=O)[C@H](C)NC(=O)[C@@H]1CSSC[C@H](NC(=O)[C@H](CCCCN)NC(=O)[C@@H](N)CCCCNC(=O)CC[C@H](NC(=O)CCCCCCCCCCCCCCCCC(=O)O)C(=O)O)C(=O)N[C@@H](CC(N)=O)C(=O)N[C@@H]([C@@H](C)O)C(=O)N[C@@H](C)C(=O)N[C@@H]([C@@H](C)O)C(=O)N1)[C@@H](C)O)C(=O)N[C@@H](CC(C)C)C(=O)N1CCC[C@H]1C(=O)NC(C)(C)C(=O)N[C@H](C(=O)N[C@@H](CC(N)=O)C(=O)N[C@H](C(=O)NCC(=O)N[C@@H](CO)C(=O)N[C@@H](CC(N)=O)C(=O)N[C@H](C(=O)N[C@@H](Cc1ccc(O)cc1)C(N)=O)[C@@H](C)O)C(C)C)[C@@H](C)O
As for B6, in test [1], the “EC50 (cAMP production)” value is 0.684 nM and the “Ratio (EC50 hCTR / EC50 hAMYR3)” value came out at 1. Further, the “EC50 (cAMP production)” value in test [2] is 0.944 nM.
